One assay has as its target labeled σ^70 and β′ (Escherichia coli, UniProt P00579+P0A8T7, C132S/C291S/C295S/S442C). The settings on record: 10 nM labeled σ^70, 50 nM labeled β′.
Assay [1] addresses T1, σ^70 (Escherichia coli, UniProt P00579). The settings on record: for Eσ^70 formation / binding σ^70: log and stationary phase samples. As to the method:
(§1) One L flasks containing 200 ml of LB with ampicillin (100 μg/ml) and IPTG (0.15 mM) were inoculated with 200 μl from an overnight culture of cells containing plasmids pTA561, 577, 600-609. The cultures were grown at 37° C. with shaking until the A600=0.4 for log phase assays and 2 hours longer (A600 about 2.0) for the early stationary phase assays. The cells were harvested by centrifugation at 6,000 rpm for 10 minutes and stored at −20° C. until use. The cell pellets were resuspended in 5 ml TE (10 mM Tris-HCl, pH 7.9 and 0.1 mM EDTA) plus 0.15 M NaCl and lysozyme (0.1 mg/ml) then incubated on ice for 15 minutes. The cells were sonicated 2×30 seconds and centrifuged for 25 minutes at 27,000×g to pellet the insoluble material. The supernatant was loaded onto a 1.5 ml immunoaffinity column containing the polyol-responsive, anti-β′ monoclonal antibody (MAb), NT73 (Thompson et al., 1992). The column was washed with 15 ml TE plus 0.15 M NaCl followed by a second wash with 10 ml TE plus 0.5 M NaCl. The protein was eluted from the column with 4 ml TE plus 0.7 M NaCl and 30% propylene glycol. The eluted sample (4 ml) was diluted with 6 ml buffer B (20 mM Tris-HCl, pH 7.9, 500 mM NaCl, 5 mM imidazole, 0.1% (v/v) Tween 20, and 10% (v/v) glycerol) and loaded (2×) onto 500 μl of Ni^2+-NTA resin. The resin was washed (2×) with 5 ml of buffer B and eluted with 0.5 ml buffer B plus 0.25 M imidazole. Samples from the elution fractions were assayed by Western blot as described above using Mabs to each subunit or σ factor. The secondary antibodies were horseradish peroxidase-labeled goat antimouse IgG antibodies and the signal was generated using the ECL+ substrate system (Amersham) and detected using the STORM FluoroImager and quantitated with IMAGEQUANT software (Molecular Dynamics).
(§2) To evaluate the potential assembly defects caused by the various mutations, His6-tagged, mutant β′ subunits were expressed in cells that were also expressing wild type, chromosomal β′ proteins. A Ni^2+-NTA column was used to purify the mutant β′ subunits together with associated cell proteins. An immunoaffinity column was used to clean-up the samples in order to reduce any non-specific binding to the Ni^2+-NTA column.
Target sequence in this assay (P00579 whole entry): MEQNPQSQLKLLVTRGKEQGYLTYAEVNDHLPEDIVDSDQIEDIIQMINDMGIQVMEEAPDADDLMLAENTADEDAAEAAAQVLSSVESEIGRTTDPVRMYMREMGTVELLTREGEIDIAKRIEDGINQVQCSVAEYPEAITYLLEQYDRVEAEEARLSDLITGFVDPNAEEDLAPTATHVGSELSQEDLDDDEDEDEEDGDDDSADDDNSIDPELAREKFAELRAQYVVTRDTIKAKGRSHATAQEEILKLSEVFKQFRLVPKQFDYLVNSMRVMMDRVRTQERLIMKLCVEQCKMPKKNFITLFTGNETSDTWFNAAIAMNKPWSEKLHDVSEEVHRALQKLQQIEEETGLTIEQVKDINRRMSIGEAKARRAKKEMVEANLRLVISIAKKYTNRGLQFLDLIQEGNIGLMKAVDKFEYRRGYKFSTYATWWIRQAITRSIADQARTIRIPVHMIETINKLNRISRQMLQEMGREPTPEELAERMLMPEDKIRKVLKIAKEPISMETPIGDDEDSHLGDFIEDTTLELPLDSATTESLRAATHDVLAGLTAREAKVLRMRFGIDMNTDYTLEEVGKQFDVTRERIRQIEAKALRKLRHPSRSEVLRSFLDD
Target sequence in this assay (P0A8T7 whole entry, further chain): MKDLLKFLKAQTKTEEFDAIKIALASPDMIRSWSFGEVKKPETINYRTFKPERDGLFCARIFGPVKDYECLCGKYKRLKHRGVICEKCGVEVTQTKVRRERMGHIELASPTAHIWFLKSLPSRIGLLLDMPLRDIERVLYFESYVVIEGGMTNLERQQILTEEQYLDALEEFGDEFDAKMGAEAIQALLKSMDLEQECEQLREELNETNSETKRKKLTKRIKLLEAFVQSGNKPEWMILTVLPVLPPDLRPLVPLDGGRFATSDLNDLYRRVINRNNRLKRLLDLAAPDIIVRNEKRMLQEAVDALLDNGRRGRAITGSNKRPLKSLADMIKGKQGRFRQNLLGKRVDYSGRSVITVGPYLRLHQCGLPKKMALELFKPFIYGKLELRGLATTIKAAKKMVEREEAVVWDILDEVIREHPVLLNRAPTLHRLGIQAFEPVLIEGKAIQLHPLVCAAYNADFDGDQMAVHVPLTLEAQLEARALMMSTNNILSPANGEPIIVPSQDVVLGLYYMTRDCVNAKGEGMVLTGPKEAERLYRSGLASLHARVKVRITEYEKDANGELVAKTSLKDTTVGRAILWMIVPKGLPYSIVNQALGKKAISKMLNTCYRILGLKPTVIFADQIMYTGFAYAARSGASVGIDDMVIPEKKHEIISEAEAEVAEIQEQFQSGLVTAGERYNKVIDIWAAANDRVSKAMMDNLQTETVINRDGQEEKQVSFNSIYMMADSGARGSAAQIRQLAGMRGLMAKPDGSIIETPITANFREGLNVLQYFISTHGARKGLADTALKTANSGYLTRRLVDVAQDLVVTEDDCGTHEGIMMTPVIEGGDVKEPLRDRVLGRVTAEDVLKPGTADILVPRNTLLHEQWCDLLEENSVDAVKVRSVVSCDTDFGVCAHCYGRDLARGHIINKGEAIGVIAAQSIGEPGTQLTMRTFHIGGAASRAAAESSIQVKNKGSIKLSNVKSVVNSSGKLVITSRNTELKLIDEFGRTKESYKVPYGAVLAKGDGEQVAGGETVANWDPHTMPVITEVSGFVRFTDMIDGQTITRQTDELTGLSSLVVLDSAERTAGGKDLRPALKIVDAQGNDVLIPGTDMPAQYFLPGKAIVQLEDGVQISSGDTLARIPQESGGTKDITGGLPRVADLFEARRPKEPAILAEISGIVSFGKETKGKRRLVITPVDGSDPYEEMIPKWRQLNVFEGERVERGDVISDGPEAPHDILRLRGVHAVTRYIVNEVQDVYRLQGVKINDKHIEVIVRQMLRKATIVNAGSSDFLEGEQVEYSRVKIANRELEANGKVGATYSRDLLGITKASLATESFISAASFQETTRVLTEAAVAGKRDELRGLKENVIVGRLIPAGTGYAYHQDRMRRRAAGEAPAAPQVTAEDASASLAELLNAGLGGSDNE
Target sequence in this assay (P0A8V2 whole entry, further chain): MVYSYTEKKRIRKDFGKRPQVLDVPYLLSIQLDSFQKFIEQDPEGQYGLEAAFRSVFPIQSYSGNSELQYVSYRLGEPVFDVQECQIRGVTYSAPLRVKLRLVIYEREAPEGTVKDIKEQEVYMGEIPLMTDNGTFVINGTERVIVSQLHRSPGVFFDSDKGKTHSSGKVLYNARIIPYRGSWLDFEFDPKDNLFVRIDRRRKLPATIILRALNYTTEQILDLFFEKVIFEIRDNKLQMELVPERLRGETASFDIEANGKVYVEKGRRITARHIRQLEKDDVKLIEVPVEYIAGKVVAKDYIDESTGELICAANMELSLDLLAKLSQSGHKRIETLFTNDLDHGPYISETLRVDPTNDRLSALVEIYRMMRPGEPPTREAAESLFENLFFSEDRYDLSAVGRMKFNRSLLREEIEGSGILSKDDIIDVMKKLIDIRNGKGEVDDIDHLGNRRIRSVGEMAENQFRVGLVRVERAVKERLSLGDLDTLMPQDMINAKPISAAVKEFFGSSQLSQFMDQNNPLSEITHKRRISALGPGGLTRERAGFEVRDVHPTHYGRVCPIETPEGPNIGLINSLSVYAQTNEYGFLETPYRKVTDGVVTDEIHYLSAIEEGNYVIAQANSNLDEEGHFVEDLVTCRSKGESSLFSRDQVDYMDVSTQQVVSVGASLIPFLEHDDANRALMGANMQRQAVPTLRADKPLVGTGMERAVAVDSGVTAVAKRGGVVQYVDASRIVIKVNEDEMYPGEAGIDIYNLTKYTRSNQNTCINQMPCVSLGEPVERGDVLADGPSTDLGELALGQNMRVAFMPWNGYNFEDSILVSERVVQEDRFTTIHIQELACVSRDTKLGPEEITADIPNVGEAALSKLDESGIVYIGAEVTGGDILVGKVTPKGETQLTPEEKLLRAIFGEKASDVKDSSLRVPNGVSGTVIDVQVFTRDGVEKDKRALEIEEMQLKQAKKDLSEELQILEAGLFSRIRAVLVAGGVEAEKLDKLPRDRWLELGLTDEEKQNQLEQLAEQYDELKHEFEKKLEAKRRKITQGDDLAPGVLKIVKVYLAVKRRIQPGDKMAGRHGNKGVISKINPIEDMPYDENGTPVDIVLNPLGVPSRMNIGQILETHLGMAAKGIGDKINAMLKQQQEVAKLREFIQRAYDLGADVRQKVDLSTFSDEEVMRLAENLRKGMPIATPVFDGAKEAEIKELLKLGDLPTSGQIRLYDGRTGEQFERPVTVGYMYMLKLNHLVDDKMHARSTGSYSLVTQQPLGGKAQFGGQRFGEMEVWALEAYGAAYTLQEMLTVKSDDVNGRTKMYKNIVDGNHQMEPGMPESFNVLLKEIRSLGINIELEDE
Target sequence in this assay (P0A7Z4 whole entry, further chain): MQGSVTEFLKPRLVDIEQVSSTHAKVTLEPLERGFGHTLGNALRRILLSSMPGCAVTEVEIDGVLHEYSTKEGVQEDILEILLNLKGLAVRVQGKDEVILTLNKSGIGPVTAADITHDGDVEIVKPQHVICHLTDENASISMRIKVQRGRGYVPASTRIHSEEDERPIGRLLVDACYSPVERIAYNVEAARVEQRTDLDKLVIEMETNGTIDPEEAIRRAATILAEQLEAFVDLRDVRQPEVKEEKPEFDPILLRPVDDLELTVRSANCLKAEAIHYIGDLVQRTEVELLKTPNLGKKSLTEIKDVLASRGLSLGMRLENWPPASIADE

The target of assay [2] is T1, σ^70. The settings on record: for ability to bind σ^70 compared to wt β′1-319 fragment: normalized to amount of fragment. How it is done: Cells containing truncated β′ expression plasmids pTA610-620 were grown to an A600 of 0.6-0.8 and induced with 1 mM IPTG. The cells were grown for an additional 30 minutes. A 200 μl sample was removed and sonicated 3×30 seconds. Twenty μl of glycerol and 20 μl of SDS-sample buffer were added and heated for 2 minutes at 95° C. then stored at −20° C. until use. The lysates were separated by SDS-PAGE. The proteins were electrophoretically transferred onto 0.05 μm nitrocellulose.
The blot was dried and the signal was visualized with a PhosphorImager and quantitated with IMAGEQUANT software (Molecular Dynamics).
This method was initially employed to detect the functionality of the β′ mutants. The mutations were cloned into a gene fragment coding for amino acid residues 1-319 of the β′ subunit. […] Samples were analyzed for binding σ^70 by far Western analysis The amount of σ^70 probe bound by each β′1-319 mutant fragment was compared to the amount bound by wt β′1-319 fragment. Each signal was normalized to the amount of β′1-319 contained in the supernatant as determined by Western blotting.
Target sequence in this assay (P00579 whole entry): as the sequence (P00579 whole entry) above

In a further assay the test system is strain RL602. Nature of the assay: Growth with plasmid-derived wild type or mutant β′ as sole source of β′ subunit. It counts as cell-based. The settings on record: 42° C., mutant β′ as sole source of β′. As to the method:
Plasmids pTA577, 600-609 (0.1 μg) were transformed into strain RL602 (Weilbaecher et al., 1994; Ridley et al., 1982). After heat shock and incubation on ice, 300 μl of LB was added to the 50 μl cell mixture. Ten μl of the transformation reaction was spotted onto LB plates plus ampicillin (100 μg/ml) and incubated at 30° C. Another 10 μl was spotted onto plates and incubated at 42° C. The plates were incubated between 24-48 hours and assessed for growth.
To assess the importance of the σ^70 binding site in vivo, the ability of mutant β′ subunits to function as the cell's sole source of β′ was assessed. Plasmids containing either mutant or wild type, full length β′ were transformed into strain RL602 (Weilbaecher et al., 1994; Ridley et al., 1982). The chromosomal rpoC gene of RL602 has an amber mutation that prevents functional β′ from being produced in the absence of a suppressor tRNA. RL602 also has a chromosomal, temperature-sensitive, amber suppressor. At the permissive temperature (30° C.) the amber suppressor is active and allows chromosomal β′ to be produced and the cell can grow. The amber suppressor is not active at the non-permissive temperature (42° C.). Therefore, at 42° C., chromosomal β′ is not made and the cell cannot grow without another source of β′. If the plasmid-derived β′ can complement the loss of β′, the cells will grow and form colonies on plates at the non-permissive temperature. If the mutant β′ cannot complement, there will be no growth on the plates at this temperature.

The target of a further assay is T2, σ^32 (Escherichia coli, UniProt P0AGB3).
T2 sequence (P0AGB3 whole entry, looked up): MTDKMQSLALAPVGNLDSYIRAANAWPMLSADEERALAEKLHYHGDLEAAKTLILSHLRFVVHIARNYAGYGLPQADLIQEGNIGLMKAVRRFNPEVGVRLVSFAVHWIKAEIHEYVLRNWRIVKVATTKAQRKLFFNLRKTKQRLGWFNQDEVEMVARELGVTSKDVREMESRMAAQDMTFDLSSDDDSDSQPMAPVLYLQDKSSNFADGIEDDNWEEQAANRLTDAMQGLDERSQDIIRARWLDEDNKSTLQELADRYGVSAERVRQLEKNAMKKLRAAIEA
How it is done:
as §1, §2
(§3) All of the sample eluates were also assayed for the presence of any minor σ species.

Another assay has as its target σ^F (Escherichia coli, UniProt P0AEM6). The settings on record: stationary phase samples. How it is done: as §1, §2, §3

Chain of labeled σ^70 and β′ (P00579 whole entry C132S/C291S/C295S/S442C): as the sequence (P00579 whole entry) above, with C132S, C291S, C295S, S442C counted along it
Chain of labeled σ^70 and β′ (P0A8T7 100-309): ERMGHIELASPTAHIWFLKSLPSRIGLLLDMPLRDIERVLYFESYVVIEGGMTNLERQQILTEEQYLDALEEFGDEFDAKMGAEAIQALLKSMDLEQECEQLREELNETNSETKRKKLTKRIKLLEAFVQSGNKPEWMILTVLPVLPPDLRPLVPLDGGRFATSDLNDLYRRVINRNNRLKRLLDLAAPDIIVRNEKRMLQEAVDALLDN
Description for labeled σ^70 and β′: The assay was performed in NTG-buffer (200 μL total volume) plus 2.5% DMSO (when insoluble additives were used) with 10 nM σ^70* (labeled protein) and 50 nM β′* (labeled protein). Labeled σ^70 was added first to the assay, then the potential inhibitor and denatured labeled β′ was added last, mixing the solution well after the addition of each component. The mixture was incubated for 5 minutes at RT and measured in a 96-well plate (Costar 3650) with a multi-plate reader (Wallac, VictorV^2 1420). For this time-resolved fluorescence measurement, the manufacturer's protocol (LANCE high count 615/665) was used (excitation with 1000 flashes, at 325 nm, measurement was delayed by 100 μs and acquired for 50 μs at 615 and 665 nm). […] The IC5-emission is corrected for the very small amount of signal from the Eu-emission band (by cross talk measurement of a standard) and then divided by the intensity of the Eu signal. […] The nature of this method allows the differentiation of the loss of signal due to real inhibition from simple absorption caused by the inner filter effect from the substance.

For the molecule `C[S+](C)[O-]` [DMSO], the “effect on LRET signal / competition” value at labeled σ^70 and β′ is given as “no significant effect”.
The same measure, in the same setting: under `CCO` [ethanol] stands “significant effect”.
Turning to “A302D (FATSDLNDLYRRVINRNNRLKRLLDLAAPDIIVRNEKRMLQEDVDALLDN)”, the “Eσ^70 formation / binding σ^70” value with σ^70 [1] is listed as “defects in binding σ^70”. Besides, the “ability to bind σ^70 compared to wt β′1-319 fragment” value in the assay with σ^70 [2] is given as “greatly reduced”. In addition, in the assay with strain RL602, the “growth at the non-permissive temperature” value is on record as “could not support growth”.
For “E295K (FATSDLNDLYRRVINRNNRLKRLLDLAAPDIIVRNKKRMLQEAVDALLDN)”, in the assay with σ^70 [1], the “Eσ^70 formation / binding σ^70” value is given as “defects in binding σ^70”. Further, in the assay with σ^70 [2], the “ability to bind σ^70 compared to wt β′1-319 fragment” value is “greatly reduced”. Further, the “growth at the non-permissive temperature” value in the assay with strain RL602 is recorded as “could not support growth”.
Taken in the same sequence, the figures for “K280E (FATSDLNDLYRRVINRNNRLERLLDLAAPDIIVRNEKRMLQEAVDALLDN)” were “no detectable affect”, “no effects on binding” and “no detectable effects on growth”.
On to “N266D (FATSDLDDLYRRVINRNNRLKRLLDLAAPDIIVRNEKRMLQEAVDALLDN)”, for which the “Eσ^70 formation / binding σ^70” value in the assay with σ^70 [1] is reported as “reduced”. For the same molecule, the “ability to bind σ^70 compared to wt β′1-319 fragment” value with σ^70 [2] was “no effects on binding”. Besides, the “growth at the non-permissive temperature” value in the assay on strain RL602 was “allowed some growth”.
Regarding “N309D (FATSDLNDLYRRVINRNNRLKRLLDLAAPDIIVRNEKRMLQEAVDALLDD)”, the “Eσ^70 formation / binding σ^70” value in the assay with σ^70 [1] is reported as “no detectable affect”. The “ability to bind σ^70 compared to wt β′1-319 fragment” value with σ^70 [2] is given as “binding more σ^70 than wild type”. Also, the “growth at the non-permissive temperature” value in the assay on strain RL602 was “no detectable effects on growth”.
Turning to “Q300E (FATSDLNDLYRRVINRNNRLKRLLDLAAPDIIVRNEKRMLEEAVDALLDN)”, the “amount of σ^32” value with σ^32 (log phase samples) is on record as “decreased amount”. In addition, the “σ^32 levels” value with σ^32 (stationary phase samples) is listed as “greatly reduced”. Besides, the “σ^F levels” value with σ^F is given as “greatly reduced”. The “increase in relative binding” value with σ^70 [2] (versus wild type β′1-319) is given as “greater than 7 fold”. For the same molecule, in the assay with σ^70 [2], the “ability to bind σ^70 compared to wt β′1-319 fragment” value is listed as “binding more σ^70 than wild type”. The “growth at the non-permissive temperature” value with strain RL602 is given as “no detectable effects on growth”.
In the case of “R275Q (FATSDLNDLYRRVINQNNRLKRLLDLAAPDIIVRNEKRMLQEAVDALLDN)”, the “Eσ^70 formation / binding σ^70” value with σ^70 [1] is on record as “defects in binding σ^70”. The “ability to bind σ^70 compared to wt β′1-319 fragment” value with σ^70 [2] is recorded as “greatly reduced”. Moreover, the “growth at the non-permissive temperature” value in the assay on strain RL602 was “could not support growth”.
Taken in the same sequence, the figures for “R293Q (FATSDLNDLYRRVINRNNRLKRLLDLAAPDIIVQNEKRMLQEAVDALLDN)” were “no detectable affect”, “greatly reduced” and “could support growth”.
As for “R297S (FATSDLNDLYRRVINRNNRLKRLLDLAAPDIIVRNEKSMLQEAVDALLDN)”, the “binding of the minor sigmas” value with σ^32 (minor σ's at detectable levels: σ^32 and σ^F) is “increased binding”. Further, the “Eσ^70 formation” value with σ^70 [1] (log phase samples) is recorded as “reduced”. In addition, the “ability to bind σ^70 compared to wt β′1-319 fragment” value in the assay with σ^70 [2] is reported as “greatly reduced”. Besides, the “growth at the non-permissive temperature” value with strain RL602 is on record as “could support growth”.
For “Y269A (FATSDLNDLARRVINRNNRLKRLLDLAAPDIIVRNEKRMLQEAVDALLDN)”, the “Eσ^70 formation / binding σ^70” value in the assay with σ^70 [1] is given as “no detectable affect”. Further, the “ability to bind σ^70 compared to wt β′1-319 fragment” value with σ^70 [2] is listed as “no effects on binding”. Besides, the “growth at the non-permissive temperature” value in the assay with strain RL602 is recorded as “no detectable effects on growth”.

The record behind these values is patent US6613531B2, “Sigma binding region of RNA polymerase and uses thereof” (priority 2000, dated 2003).
